This passage reports Kd results from article doi:10.1101/2021.09.24.461537 (bioRxiv, 2021).

Holding throughout (test): ITC
Experiment [1] addresses Drosophila Su(H) (98-523) WT (Drosophila) (UniProt P28159).
Experiment [2] has as its target mouse Rbpj (53-474) E89G (mouse, UniProt P31266 53-474, E89G).
Experiment [3] addresses mouse Rbpj (53-474) WT (mouse, UniProt P31266 53-474).
Experiment [4] addresses mouse Rbpj (53-474) K195E (mouse, UniProt P31266 53-474, K195E).

mouse Rbpj (53-474) E89G, sequence (P31266 53-474 E89G): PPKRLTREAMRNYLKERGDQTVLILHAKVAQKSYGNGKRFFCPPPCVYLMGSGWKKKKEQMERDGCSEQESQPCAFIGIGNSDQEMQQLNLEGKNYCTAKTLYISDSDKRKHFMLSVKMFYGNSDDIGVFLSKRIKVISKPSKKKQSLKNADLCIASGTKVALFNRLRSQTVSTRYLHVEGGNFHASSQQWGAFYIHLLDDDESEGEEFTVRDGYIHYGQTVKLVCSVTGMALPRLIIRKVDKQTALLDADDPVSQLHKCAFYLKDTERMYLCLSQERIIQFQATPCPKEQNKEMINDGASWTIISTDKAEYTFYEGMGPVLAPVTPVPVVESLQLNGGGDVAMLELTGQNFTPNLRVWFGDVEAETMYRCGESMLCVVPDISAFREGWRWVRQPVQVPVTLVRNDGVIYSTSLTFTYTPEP
mouse Rbpj (53-474) WT, sequence (P31266 53-474): as the sequence (P31266 53-474 E89G) above, with G37E counted along it
mouse Rbpj (53-474) K195E, sequence (P31266 53-474 K195E): as the sequence (P31266 53-474 E89G) above, with G37E, K143E counted along it

As for “Drosophila Notch RAM domain peptide (residues 1763-1790)”, the Kd in experiment [1] was 187 nM.

Regarding VLLSRKRRRQHGQLWFPEGFKVSEASKK [Notch1 RAM domain peptide (human Notch1 residues 1754-1781)], the Kd in experiment [2], in experiment [3] and in experiment [4] was ~20 nM each time.

B1: SHARP residues 2776-2833 (domain or fragment)
chain: RASANENSRFHPGSMPVIDDRPADAGSGAGLRVNTSEGVVLLSYSGQKTEGPQRISAK
For the molecule B1, the Kd was ~5 nM in experiment [2], ~5 nM in experiment [3] and 21 nM in experiment [4].
